Data taken from PMC10272835, “Exploration of T cell immune responses by expression of a dominant-negative SHP1 and SHP2” (Frontiers in Immunology, 2023).
pEC50: −log10 of the molar value.

Experiments:
[1] = molecular target: phosphorylated PD1 ITIM peptide; test: ELISA; peptides coated at 0.5 µg/ml on Nunc MaxiSorp plates; His-tagged SH2 protein from 10 µg/ml with 1:3 serial dilutions in PBS 0.5% BSA; detected with anti-His-tag antibody, absorbance at 450 nm
[2] = molecular target: phosphorylated PD1 ITSM peptide; test: as above

| Substance | pEC50 [1] | pEC50 [2] |
| --- | --- | --- |
| dual SH2 domains of SHP2 (domain or fragment) | 8.77 | 8.91 |
| dual SH2 domains of SHP1 (domain or fragment) | 7.67 | 7.82 |

The remaining substances from weak to strong by pEC50 [1], led by results:

| pEC50 [1] | pEC50 [2] | Substance |
| --- | --- | --- |
| 7.47 | 8.77 | C-terminal SH2 domain of SHP1 (domain or fragment) |
| 7.92 | 8.34 | N-terminal SH2 domain of SHP2 (domain or fragment) |
| 8.26 | 8.73 | C-terminal SH2 domain of SHP2 (domain or fragment) |
